The values below are quoted from earlier work in paper PMC6375914.

One may read the Kd as the equilibrium constant for the complex coming apart.

Data set [1] concerns the target Ubc9 (Homo sapiens) (UniProt P63279). As to the kind of experiment: SPR. In general terms: Surface plasmon resonance follows binding to a sensor surface in real time, without labels.
Data set [2] has the same target. Kind of data set: ITC. In general terms: Isothermal titration calorimetry measures the heat released or taken up as one component is titrated into another.

Sequence of UniProt P63279 (P63279 2-158): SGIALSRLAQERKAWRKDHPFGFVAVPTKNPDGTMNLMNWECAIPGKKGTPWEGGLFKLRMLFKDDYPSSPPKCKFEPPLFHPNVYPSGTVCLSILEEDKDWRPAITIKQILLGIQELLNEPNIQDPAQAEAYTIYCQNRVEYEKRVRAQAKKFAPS

Regarding SUMO1 (from UniProt P63165), the Kd was 0.35 µM in data set [1] and 0.25 µM in data set [2].
